From patent publication US10662230B2, “Cyclic RGD cell-binding motif and uses thereof” (Spiber Technologies AB, priority 2015, dated 2020)
Entries after “also recorded” stand apart in the source; their conditions may differ.

Experiments:
Format in all cases: cell-based
[1] = tested on: MIN6-m9 pancreatic cell line; assay: Cell culture on FNCC silk coatings; details: coating 0.1 mg/ml
Method: (§1) After purification, solutions of FNCC-silk protein (SEQ ID NO: 13) were used to coat cell culture plates (Sarstedt, hydrophobic plates for suspension cells). Briefly, the protein solutions were diluted to 0.1 mg/ml in Tris buffer, and allowed to incubate at room temperature for 30 minutes before removal and wash.
(§2) Cells were harvested using trypsination (TrpLE) and seeded onto the FNcc-silk coatings at suitable cell density (3-10 000 cells/cm2). Cell growth was monitored with Alamar Blue cell viability assay (Molecular Probes) regularly (every 2-3 day). At the end point, after 7-14 days, Live/dead staining was performed.

HaCaT Keratinocytes = assay: Cell culture on FNCC silk coatings; details: coating 0.1 mg/ml
Method: as §1, §2

[2] = tested on: Human Dermal Microvascular Endothelial Cells; assay: Cell culture on FNCC silk coatings; details: coating 0.1 mg/ml
Method: as §1, §2

[3] = tested on: Human Skeletal Muscle Satellite Cells; assay: Cell culture on FNCC silk coatings; details: coating 0.1 mg/ml
Method: as §1, §2

Human Dermal fibroblasts = assay: Cell culture on FNCC silk coatings; details: coating 0.1 mg/ml
Method: as §1, §2

[4] = tested on: Mouse Mesenchymal stem cells; assay: Cell culture on FNCC silk coatings; details: coating 0.1 mg/ml
Method: as §1, §2

[5] = tested on: Human dermal microvascular endothelial cells (EC); assay: Early attachment assay, endothelial cells on silk films; details: 1 h adhesion to film
Method: Human dermal microvascular endothelial cells (EC), (HDMEC, PromoCell GmbH, Germany) isolated from dermis from adult donor were grown in culture flasks coated with gelatin (Sigma Aldrich) in complete endothelial cell media MV, containing 5% fetal bovine serum (PromoCell GmbH, Germany).
Cells were harvested at passage 3-8, seeded at 20 000/cm^2 and allowed to adhere to the films or controls for 1 h in a cell incubator before gentle washing twice with pre-warmed phosphate buffered saline (PBS) followed by 10 min fixation with 96% ethanol. After three washings in water, cells were stained for 30 min with 0.1% Crystal Violet in H2O. Plates were dried after extensive washing in water.
Attachment and morphology of cells bound to the films obtained in Example 3 were documented by taking micrographs at 2× and 10× magnification in an inverted bright field microscope. The color was then dissolved in 40 μL 20% acetic acid for 10 min, and 35 μL of the solution was transferred to a 384-well plate for optical density measurement at 595 nm (TECAN Infinite M200). Wells with cells fixed without pre-washing was used as positive control. Wells with no cells were used as blank. Experiments were run in hexaplicates and repeated three times.
First, we wanted to investigate how well adherent cells attach and spread on the FNCC-silk (FNCC-4RepCT, SEQ ID NO: 13) compared to linear RGD proteins (RGD-4RepCT, SEQ ID NO: 16) and WT silk proteins (4RepCT, SEQ ID NO: 2) obtained in Example 3. Silk films of the three different variants were prepared in cell culture plates, and human primary endothelial cells (EC), mesenchymal stem cells (MSC) or keratinocytes (KC) were allowed to adhere for 1 h before fixation and staining.

[6] = tested on: Normal human epidermal keratinocytes (KC); assay: Formation of focal adhesions (F-actin/vinculin staining), keratinocytes
Method: Cells were harvested at passage 3-8, seeded at 3500/cm^2 and allowed to adhere onto films for 20 min, 1 or 3 hours in chamber slides. After gentle washing, cells were fixed with 4% paraformaldehyde, permeabilized with 0.1% Triton X-100 in PBS, and blocked with 1% bovine serum albumin (BSA, AppliChem) in PBS.
Primary antibody were used at the following concentrations in 1% BSA: mouse anti human vinculin (Sigma V9131) at 9.5 μg/ml, mouse-anti human beta1-integrin (activated conformation, clone HUTS-4) at 3.3 μg/mL, or mouse-anti human alpha5-integrin (ligand bound conformation, clone SNAKA-51) at 2.5 μg/mL, both Millipore.
Secondary antibody was AlexaFlour488 goat anti mouse IgG (H+L), cross adsorbed (Invitrogen), used at 1:500. Phalloidin-AlexaFluor594 (Life Technologies) were used at 1:40 to detect filamentous actin. DAPI was used for nuclear staining. Slides were mounted in Fluorescence mounting medium (Dako, Copenhagen).
For microscopic analysis of cell adhesion (formation of focal adhesions and stress fibers), a confocal microscope was used (Carl Zeiss LSM 710) at 10× and 63× magnification.
Quality of focal adhesions were graded from 1-4 regarding presence of small and dim focal adhesion (=1p), small and distinct focal adhesions (=2p), abundant focal adhesions (=3p) and large and bright focal adhesions (=4p), and multiplied with the portion of positive cells expressing this specific type of focal adhesions (0-4, where 0≈none of, 1≈one fourth of, 2≈half of, 3≈three fourths of, and 4≈all of the focal adhesion-positive cells.)
Formation of focal adhesions within the cells was analyzed after 3 h by staining for F-actin in combination with vinculin, which is one of the major components of the focal adhesion complex. Co-staining of F-actin and vinculin is thus a sign of integrin-involved, well established binding of cells to the underlying substrate. Focal adhesions appear as yellow-greenish elongations of the F-actin filaments, often situated close to the cell membrane.
The results from the analysis of formation and characterization of focal adhesions in KC after adherence for 3 h onto films of WT-silk (SEQ ID NO: 2) or silk functionalized with FNCC (SEQ ID NO: 13), FNVS (SEQ ID NO: 15), FNSS (SEQ ID NO: 14) or RGD (SEQ ID NO: 16) is presented in FIG. 7. Slides were scanned with a confocal microscope at 10× for overview (FIG. 7a) and at 63× for details (FIG. 7b). Two types of grading of the focal adhesions in the cells were performed.

[7] = tested on: Normal human epidermal keratinocytes (KC); assay: Cell spreading by F-actin staining, keratinocytes; details: 3 h adhesion
Method: Cells were harvested at passage 3-8, seeded at 3500/cm^2 and allowed to adhere onto films for 20 min, 1 or 3 hours in chamber slides. After gentle washing, cells were fixed with 4% paraformaldehyde, permeabilized with 0.1% Triton X-100 in PBS, and blocked with 1% bovine serum albumin (BSA, AppliChem) in PBS. Secondary antibody was AlexaFlour488 goat anti mouse IgG (H+L), cross adsorbed (Invitrogen), used at 1:500. Phalloidin-AlexaFluor594 (Life Technologies) were used at 1:40 to detect filamentous actin. DAPI was used for nuclear staining. Slides were mounted in Fluorescence mounting medium (Dako, Copenhagen). The stained cells were analyzed using an inverted microscope (Nikon Eclipse Ti) at 4× and 10× magnification. Excitation at 563/45 nm and detection at 625/50 nm was used for red fluorescence, whereas excitation with 387/11 nm and detection at 447/60 nm was used to monitor blue fluorescence. By staining for F-actin, cell spreading and formation of stress fibers in KC after 3 h adhesion were investigated (FIG. 6).

B1: FNCC-silk: recombinant spider silk protein 4RepCT with N-terminal cysteine-looped RGD motif CTGRGDSPAC (SEQ ID NO: 10) (protein)
chain: GPNSCTGRGDSPACGSASGQGGYGGLGQGGYGQGAGSSAAAAAAAAAAAAGGQGGQGQGGYGQGSGGSAAAAAAAAAAAAAAAGRGQGGYGQGSGGNAAAAAAAAAAAAAAAGQGGQGGYGRQSQGAGSAAAAAAAAAAAAAAGSGQGGYGGQGQGGYGQSSASASAAASAASTVANSVSRLSSPSAVSRVSSAVSSLVSNGQVNMAALPNIISNISSSVSASAPGASGCEVIVQALLEVITALVQIVSSSSVGYINPSAVNQITNVVANAMAQVMG
modifications: cyclic disulfide loop; Fusion protein; DISULFID (5)..(14)
growth profile (Alamar Blue) ([1]; 7-14 days): positive growth profile
viable cells at the end point (Live/dead staining) ([1]; after 7-14 days): > 80%
growth profile (Alamar Blue) (HaCaT Keratinocytes; 7-14 days): positive growth profile
viable cells at the end point (Live/dead staining) (HaCaT Keratinocytes; after 7-14 days): > 80%
growth profile (Alamar Blue) ([2]; 7-14 days): positive growth profile
viable cells at the end point (Live/dead staining) ([2]; after 7-14 days): > 80%
growth profile (Alamar Blue) ([3]; 7-14 days): positive growth profile
viable cells at the end point (Live/dead staining) ([3]; after 7-14 days): > 80%
growth profile (Alamar Blue) (Human Dermal fibroblasts; 7-14 days): positive growth profile
viable cells at the end point (Live/dead staining) (Human Dermal fibroblasts; after 7-14 days): > 80%
growth profile (Alamar Blue) ([4]; 7-14 days): positive growth profile
viable cells at the end point (Live/dead staining) ([4]; after 7-14 days): > 80%
attachment seen in micrographs ([5]; crystal violet staining): clear improvement of attachment is seen on the FNCC films compared to both RGD and WT
OD of crystal violet dissolved from adhered cells (number of bound cells) ([5]; seeding 20 000/cm2): significantly more cells had bound to the FNCC-silk after 1 h compared to WT silk
OD of crystal violet dissolved from adhered cells (number of bound cells) ([5]; seeding 20 000/cm2, listed as FNCC): Significantly more EC had attached to FNCC also compared to RGD silk
time after seeding at which prominent focal adhesions appeared [6]: 20 min
percentage of cells exhibiting focal adhesions ([6]; 3 h adherence, 10× magnification): significant increase in percentage of cells expressing focal adhesions on FNCC-silk, compared to RGD and WT
quality (grading) of focal adhesions ([6]; 3 h adherence, 63× magnification): tendency of more prominent focal adhesions in cells attached to FNCC-silk compared to the other silk types; also recorded: almost only prominent focal adhesions
cell morphology (F-actin) [7]: most cells had a nice spread-out morphology with distinct actin filaments
spreading of KC (total cell area in 4× micrographs) ([7]; seeding 3 500/cm^2): significantly increased compared to FNSS-silk
spreading of KC (total cell area in 4× micrographs) ([7]; seeding 3 500/cm^2, listed as FNCC): significantly increased spreading of KC compared to RGD-film (p<0.05) and WT-film (p<0.001)
